B1: Mothers against decapentaplegic homolog 4 (Homo sapiens), Q13485 (parent)
chain: MDNMSITNTPTSNDACLSIVHSLMCHRQGGESETFAKRAIESLVKKLKEKKDELDSLITAITTNGAHPSKCVTIQRTLDGRLQVAGRKGFPHVIYARLWRWPDLHKNELKHVKYCQYAFDLKCDSVCVNPYHYERVVSPGIDLSGLTLQSNAPSSMMVKDEYVHDFEGQPSLSTEGHSIQTIQHPPSNRASTETYSTPALLAPSESNATSTANFPNIPVASTSQPASILGGSHSEGLLQIASGPQPGQQQNGFTGQPATYHHNSTTTWTGSRTAPYTPNLPHHQNGHLQHHPPMPPHPGHYWPVHNELAFQPPISNHPAPEYWCSIAYFEMDVQVGETFKVPSSCPIVTVDGYVDPSGGDRFCLGQLSNVHRTEAIERARLHIGKGVQLECKGEGDVWVRCLSDHAVFVQSYYLDREAGRAPGDAVHKIYPSAYIKVFDLRQCHRQMQQQAATAQAAAAAQAAAVAGNIPGPGSVGGIAPAISLSAAAGIGVDDLRRLCILRMSFVKGWGPDYPRQSIKETPCWIEIHLHRALQLLDEVLHTMPIADPQPLD

Variants of: B1
Settings: with smad1_human SMAD1, Q15797
Chain of smad1_human SMAD1, Q15797 (Q15797 whole entry): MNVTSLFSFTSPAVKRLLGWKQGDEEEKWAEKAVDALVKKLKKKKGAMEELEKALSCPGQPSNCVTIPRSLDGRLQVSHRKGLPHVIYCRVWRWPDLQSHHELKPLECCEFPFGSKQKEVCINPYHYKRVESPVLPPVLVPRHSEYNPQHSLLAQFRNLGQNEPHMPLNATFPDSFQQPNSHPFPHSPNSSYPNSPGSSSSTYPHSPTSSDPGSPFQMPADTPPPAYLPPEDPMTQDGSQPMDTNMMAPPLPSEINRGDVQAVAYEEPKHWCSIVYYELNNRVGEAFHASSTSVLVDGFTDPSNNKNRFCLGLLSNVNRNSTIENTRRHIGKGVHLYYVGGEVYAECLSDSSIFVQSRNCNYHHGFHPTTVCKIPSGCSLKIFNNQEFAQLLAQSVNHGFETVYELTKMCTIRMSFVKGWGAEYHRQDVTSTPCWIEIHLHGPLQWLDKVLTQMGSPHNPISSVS

Variant	effect of a mutation on the interaction
D537E	decreasing interaction strength
R515S	disrupting interaction strength
V426S	decreasing interaction strength
D351H	disrupting interaction strength
K507S	disrupting interaction strength
